This is an account of results in US20040181042A1 (MEDICAL AND BIOLOGICAL LABORATORIES, published 2004).

In the experiment the target is T1, aggregated Aβ in plaques of the cerebral cortex of a patient with Alzheimer's disease (human (brain of a patient with …, UniProt P05067 672-713)).
T1 construct: Tissue section fixed in 4% formaldehyde, embedded in paraffin, pre-treated with formic acid; also called neurotic plaques
Kind of experiment: immunolabeling of sections of Alzheimer's disease cerebral cortex. The source says: A section of the cerebral cortex of the brain of a patient with Alzheimer's disease was fixed in 4% formaldehyde and embedded in paraffin, then pre-treated with formic acid. […] Arrows indicate vessels in the serial sections.

T1 sequence (P05067 672-713): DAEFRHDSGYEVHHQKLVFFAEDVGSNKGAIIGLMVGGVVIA

B1: antibody 4396C (antibody, V domains shown)
VH: EVQLQQSGPELVKTGASVKISCKASGYSFTGYYMHWVKQSHGKSLEWIGYISCYNGATSYNQKFKGKATFTVDTSSSTAYMQFNSLTSEDSAVYYCARGANWVFDYWGQGTTLTVSS
VL: QAVVTQESALTTSPGGTVILTCRSSTGAVTTSNYANWVQEKPDHLFTGLIGGTSNRAPGVPVRFSGSLIGDKAALTITGAQTEDDAMYFCALWYSTHYVFGGGTKVTVLG
Turning to B1, the binding result is “no binding”.
